Experiments:
[1] = target: OmpF trimer (Escherichia coli (endogenous in B^E3000)) (UniProt P02931); experiment: ITC
OmpF (Escherichia coli) = OmpF (Escherichia coli) (UniProt P02931); experiment: ITC; conditions: cited from earlier work

Row | Substance | Kd [1] [nM] | dH [1] [kcal·mol^–1] | stoichiometry N [1] | Kd (OmpF (Escherichia coli)) [nM]
1 | (OBS2)3, TMEA-mediated tridentate OBS2 in the form of a colicin DNase fusion (S71C ColE9^53–83-DNase) (from UniProt P09883 53-83) | 480 | -5.64 | 3 | 
2 | Colicin E9 OBS1 peptide OBS1 (from UniProt P09883) |  |  |  | 2000
3 | Colicin E9 OBS2 peptide |  |  |  | 24000
